Literature values, collected in article PMC5053023.

Target: SRSF1 RS domain (Homo sapiens) (UniProt Q07955)
Sequence of UniProt Q07955 (Q07955 198-248): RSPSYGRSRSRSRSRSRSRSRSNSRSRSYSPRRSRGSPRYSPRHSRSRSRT

For SRPK1 (from UniProt Q96SB4), the Kd is given as 0.1 µM.
